Experimental data published in the supplement of paper PMC7877785.
± gives the uncertainty stated by the source.

Test: self-splicing fitness, log relative to wild type (ln ratio); higher = more splicing; Tetrahymena group I intron in knt gene, E. coli kanamycin selection, DiMSum; sequences stand for … in CUCUCU…GGAGGGAAAAGUUAUCAGGCAUGCACCUGGUAGCUAGUCUUUAAACCAAUAGAUUGCAUCGGUUUAAAAGGCAAGACCGUCAAAUUGCGGGAAAGGGGUCAACAGCCGUUCAGUACCAAGUCUCAGGGGAAACUUUGAGAUGGCCUUGCAAAGGGUAUGGUAAUAAGCUGACGGACAUGGUCCUAACCACGCAGCCAAGUCCUAAGUCAACAGAUCUUCUGUUGAUAUGGAUGCAGUUCACAGACUAAAUGUCGGUCGGGGAAGAUGUAUUCUUCUCAUAAGAUAUAGUCGGACCUCUCCUUAAUGGGAGCUAGCGGAUGAAGUGAUGCAACACUGGAGCCGCUGGGAACUAAUUUGUAUGCGAAAGUAUAUUGAUUAGUUUUGGAGUACUCGUGGUCG
Procedure, shortened: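 DiMSum derived fitness as the error-weighted combination of fold changes across replicates, kanamycin versus no kanamycin, normalised to wild type. E. coli BL21(DE3) held the library, which randomised all eight P1ex-region intron nucleotides within the knt kanamycin-resistance gene on pET-22b(+). Six replicate transformations grew overnight at 37°C or 30°C on LB agar with or without 25 μg/mL kanamycin, also containing 100 μg/mL carbenicillin, 50 μM IPTG and 0.2% rhamnose, and pooled colonies were amplicon-sequenced on an Illumina HiSeq 2500.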

Sequence | self-splicing fitness (ln) (30 °C) | self-splicing fitness (ln) (37 °C)
CAGCAGCAAUAUUACGUUAU | -3.77 ± 0.19 | -2.93 ± 0.15
CAUCAGCAAUAUUACGUUUC | -2.76 ± 0.17 | -1.82 ± 0.16
UCGUAGCAAUAUUACGAUGC | -4.1 ± 0.33 | -2.27 ± 0.27
AUGGAGCAAUAUUACGGCUU | -2.98 ± 0.29 | -1.83 ± 0.38
GCCAAGCAAUAUUACGGAGA | -1.45 ± 0.086 | -0.924 ± 0.089
CUUAAGCAAUAUUACGAGAU | -2.92 ± 0.22 | -1.59 ± 0.2
ACGAAGCAAUAUUACGAAGC | -3.6 ± 0.27 | -2.61 ± 0.3
ACUGAGCAAUAUUACGCCGC | -3.95 ± 0.34 | -1.23 ± 0.49
CUUGAGCAAUAUUACGCAGA | -1.11 ± 0.26 | -1.91 ± 0.3
AAAUAGCAAUAUUACGAAUG | -1.37 ± 0.12 | -1.62 ± 0.16
GAGCAGCAAUAUUACGGCUG | -3.87 ± 0.26 | -2.51 ± 0.28
GGCCAGCAAUAUUACGGAAG | -1.79 ± 0.082 | -0.69 ± 0.11
GACAAGCAAUAUUACGUCAC | -2.9 ± 0.23 | -2.75 ± 0.29
CGGUAGCAAUAUUACGCGAU | -2.23 ± 0.35 | -2.41 ± 0.44
UAGAAGCAAUAUUACGAGAU | -3.64 ± 0.33 | -2.16 ± 0.23
CGCCAGCAAUAUUACGGAUA | -1.77 ± 0.18 | -1.32 ± 0.21
GGUUAGCAAUAUUACGGAUU | 0.0654 ± 0.078 | -0.0766 ± 0.092

Sequence | self-splicing fitness (ln) (30 °C) | self-splicing fitness (ln) (37 °C)
UCUUAGCAAUAUUACGGAGC | -3.74 ± 0.4 | -0.68 ± 0.14
UGCAAGCAAUAUUACGGAGA | -2.45 ± 0.21 | -3.01 ± 0.29
AACAAGCAAUAUUACGGUCU | -0.114 ± 0.037 | 0.456 ± 0.054
UUAGAGCAAUAUUACGGUCG | -1.64 ± 0.19 | -0.691 ± 0.31
UACAAGCAAUAUUACGUUGA | -2.72 ± 0.17 | -2.06 ± 0.15
AGCUAGCAAUAUUACGAUAA | -2.14 ± 0.12 | -1.12 ± 0.14
UAAAAGCAAUAUUACGAAGG | -2.61 ± 0.21 | -1.6 ± 0.23
CACCAGCAAUAUUACGCCGU | -2.65 ± 0.13 | -2.55 ± 0.18
GUCAAGCAAUAUUACGACCU | -3.31 ± 0.41 | -0.756 ± 0.46
CCCCAGCAAUAUUACGAUAA | – | -1.49 ± 0.22
ACUGAGCAAUAUUACGUGGC | -3.3 ± 0.22 | -1.79 ± 0.25
GAUCAGCAAUAUUACGAUUA | -0.622 ± 0.086 | 0.0655 ± 0.1
GUGGAGCAAUAUUACGAUUA | -2.1 ± 0.48 | -1.68 ± 0.34
CUAGAGCAAUAUUACGUGAC | -1.08 ± 0.12 | -1.31 ± 0.17
UUAGAGCAAUAUUACGUUCG | -1.22 ± 0.1 | -0.767 ± 0.15
CGAAAGCAAUAUUACGACGG | 0.0482 ± 0.089 | 0.569 ± 0.12
AACUAGCAAUAUUACGUCAC | -2.87 ± 0.18 | –
